B1: Programmed cell death 6-interacting protein (Homo sapiens), Q8WUM4 (parent)
chain: MATFISVQLKKTSEVDLAKPLVKFIQQTYPSGGEEQAQYCRAAEELSKLRRAAVGRPLDKHEGALETLLRYYDQICSIEPKFPFSENQICLTFTWKDAFDKGSLFGGSVKLALASLGYEKSCVLFNCAALASQIAAEQNLDNDEGLKIAAKHYQFASGAFLHIKETVLSALSREPTVDISPDTVGTLSLIMLAQAQEVFFLKATRDKMKDAIIAKLANQAADYFGDAFKQCQYKDTLPKEVFPVLAAKHCIMQANAEYHQSILAKQQKKFGEEIARLQHAAELIKTVASRYDEYVNVKDFSDKINRALAAAKKDNDFIYHDRVPDLKDLDPIGKATLVKSTPVNVPISQKFTDLFEKMVPVSVQQSLAAYNQRKADLVNRSIAQMREATTLANGVLASLNLPAAIEDVSGDTVPQSILTKSRSVIEQGGIQTVDQLIKELPELLQRNREILDESLRLLDEEEATDNDLRAKFKERWQRTPSNELYKPLRAEGTNFRTVLDKAVQADGQVKECYQSHRDTIVLLCKPEPELNAAIPSANPAKTMQGSEVVNVLKSLLSNLDEVKKEREGLENDLKSVNFDMTSKFLTALAQDGVINEEALSVTELDRVYGGLTTKVQESLKKQEGLLKNIQVSHQEFSKMKQSNNEANLREEVLKNLATAYDNFVELVANLKEGTKFYNELTEILVRFQNKCSDIVFARKTERDELLKDLQQSIAREPSAPSIPTPAYQSSPAGGHAPTPPTPAPRTMPPTKPQPPARPPPPVLPANRAPSATAPSPVGAGTAAPAPSQTPGSAPPPQAQGPPYPTYPGYPGYCQMPMPMGYNPYAYGQYNMPYPPVYHQSPGQAPYPGPQQPSYPFPQPPQQSYYPQQ
partner: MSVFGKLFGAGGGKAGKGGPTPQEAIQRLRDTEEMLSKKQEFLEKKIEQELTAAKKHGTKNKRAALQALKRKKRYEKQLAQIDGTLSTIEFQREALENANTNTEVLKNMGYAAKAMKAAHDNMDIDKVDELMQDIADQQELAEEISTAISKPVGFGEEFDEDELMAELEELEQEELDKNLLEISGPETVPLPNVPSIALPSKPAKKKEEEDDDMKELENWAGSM

Variants of: B1
Settings: with chm4b_human CHMP4B
In the case of I212D, the “effect of a mutation on the interaction” value is reported as “disrupting interaction”.

Source: IntAct's records for PubMed 21889351
